Source: patent US20260184748A1, “COMPOSITIONS COMPRISING OCTADECANEUROPEPTIDES (ODN) AND SYNTHETIC DERIVATIVES THEREOF AND METHODS OF USE FOR MODULATION OF FOOD INTAKE, OBESITY, BODY WEIGHT, NAUSEA, AND EMESIS” (The Trustees of the University of Pennsylvania, priority 2022, published 2026)
Each block holds one compound with its values, some of them ahead of it. Where no end group is shown, it is not given here.

Key:
Assay in all cases: Arrestin agonist mode
Type in all cases: cell-based
[1] = target: T1, GPR1 (Homo sapiens, UniProt P46091); conditions: read-out: RC50 (the source's name)
T1 sequence (P46091 1-355): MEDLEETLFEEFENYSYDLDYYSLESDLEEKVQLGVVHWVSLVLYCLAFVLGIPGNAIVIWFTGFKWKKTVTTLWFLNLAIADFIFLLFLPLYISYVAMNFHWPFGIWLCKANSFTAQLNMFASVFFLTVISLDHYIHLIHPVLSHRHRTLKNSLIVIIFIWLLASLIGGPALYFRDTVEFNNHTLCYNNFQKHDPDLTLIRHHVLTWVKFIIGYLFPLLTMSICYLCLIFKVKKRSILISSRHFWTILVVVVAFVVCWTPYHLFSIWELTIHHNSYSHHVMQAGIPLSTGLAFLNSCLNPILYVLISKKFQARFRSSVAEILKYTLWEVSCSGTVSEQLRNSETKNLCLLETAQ

[2] = target: T2, CXCR5 (Homo sapiens, UniProt P32302); conditions: read-out: RC50 (the source's name)
T2 sequence (P32302 1-372): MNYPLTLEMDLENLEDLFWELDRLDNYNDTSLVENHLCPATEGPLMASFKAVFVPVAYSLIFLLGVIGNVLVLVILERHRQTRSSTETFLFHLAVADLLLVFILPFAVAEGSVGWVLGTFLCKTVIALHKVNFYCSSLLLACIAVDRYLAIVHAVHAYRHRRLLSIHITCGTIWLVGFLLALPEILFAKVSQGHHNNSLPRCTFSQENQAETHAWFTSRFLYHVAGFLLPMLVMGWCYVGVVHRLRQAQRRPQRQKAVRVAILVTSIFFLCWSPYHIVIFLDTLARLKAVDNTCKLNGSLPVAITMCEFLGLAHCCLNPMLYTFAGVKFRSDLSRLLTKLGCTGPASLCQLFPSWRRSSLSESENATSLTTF

[3] = target: T3, CCR1 (Homo sapiens, UniProt P32246); conditions: read-out: RC50 (the source's name)
T3 sequence (P32246 1-355): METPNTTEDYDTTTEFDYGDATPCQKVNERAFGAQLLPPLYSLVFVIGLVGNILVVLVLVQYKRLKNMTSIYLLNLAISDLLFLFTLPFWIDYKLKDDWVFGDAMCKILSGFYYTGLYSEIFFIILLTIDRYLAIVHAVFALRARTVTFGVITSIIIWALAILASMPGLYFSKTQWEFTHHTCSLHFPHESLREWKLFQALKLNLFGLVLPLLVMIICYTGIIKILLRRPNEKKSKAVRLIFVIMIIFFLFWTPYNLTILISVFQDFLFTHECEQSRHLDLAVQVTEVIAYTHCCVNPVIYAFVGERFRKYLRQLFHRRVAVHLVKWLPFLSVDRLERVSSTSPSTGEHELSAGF

[4] = target: CCR5 (Homo sapiens, UniProt P51681); conditions: read-out: RC50 (the source's name)
[5] = target: GPR103 (Homo sapiens, UniProt Q96P65); conditions: read-out: RC50 (the source's name)
[6] = target: T4, CX3CR1 (Homo sapiens, UniProt P49238); conditions: read-out: RC50 (the source's name)
T4 sequence (P49238 1-355): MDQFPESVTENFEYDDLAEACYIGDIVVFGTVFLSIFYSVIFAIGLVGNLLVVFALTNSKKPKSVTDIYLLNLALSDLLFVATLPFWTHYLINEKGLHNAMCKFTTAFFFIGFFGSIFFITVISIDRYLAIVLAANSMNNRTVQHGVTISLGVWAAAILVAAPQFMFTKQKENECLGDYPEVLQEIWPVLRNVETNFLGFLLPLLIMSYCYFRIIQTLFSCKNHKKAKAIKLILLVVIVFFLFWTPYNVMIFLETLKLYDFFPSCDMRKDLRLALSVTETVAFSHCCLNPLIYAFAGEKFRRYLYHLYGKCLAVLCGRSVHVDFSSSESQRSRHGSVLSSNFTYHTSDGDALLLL

[7] = target: EDG3 (Homo sapiens, UniProt Q99500); conditions: read-out: RC50 (the source's name)
[8] = target: EDG6 (Homo sapiens, UniProt O95977); conditions: read-out: RC50 (the source's name)
[9] = target: EDG1 (Homo sapiens, UniProt P21453); conditions: read-out: RC50 (the source's name)
[10] = target: FFAR1 (Homo sapiens, UniProt O14842); conditions: read-out: RC50 (the source's name)
[11] = target: T5, CXCR3 (Homo sapiens, UniProt P49682); conditions: read-out: RC50 (the source's name)
T5 sequence (P49682 1-368): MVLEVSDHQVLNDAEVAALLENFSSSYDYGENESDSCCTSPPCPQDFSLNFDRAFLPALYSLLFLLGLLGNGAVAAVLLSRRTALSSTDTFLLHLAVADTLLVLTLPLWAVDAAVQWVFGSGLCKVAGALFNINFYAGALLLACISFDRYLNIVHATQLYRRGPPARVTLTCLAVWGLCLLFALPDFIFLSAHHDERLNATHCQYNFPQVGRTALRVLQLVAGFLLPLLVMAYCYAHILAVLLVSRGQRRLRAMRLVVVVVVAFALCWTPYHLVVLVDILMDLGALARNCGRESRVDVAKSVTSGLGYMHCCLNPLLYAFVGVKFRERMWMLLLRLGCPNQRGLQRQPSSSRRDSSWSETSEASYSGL

[12] = target: T6, CCR6 (Homo sapiens, UniProt P51684); conditions: read-out: RC50 (the source's name)
T6 sequence (P51684 1-374): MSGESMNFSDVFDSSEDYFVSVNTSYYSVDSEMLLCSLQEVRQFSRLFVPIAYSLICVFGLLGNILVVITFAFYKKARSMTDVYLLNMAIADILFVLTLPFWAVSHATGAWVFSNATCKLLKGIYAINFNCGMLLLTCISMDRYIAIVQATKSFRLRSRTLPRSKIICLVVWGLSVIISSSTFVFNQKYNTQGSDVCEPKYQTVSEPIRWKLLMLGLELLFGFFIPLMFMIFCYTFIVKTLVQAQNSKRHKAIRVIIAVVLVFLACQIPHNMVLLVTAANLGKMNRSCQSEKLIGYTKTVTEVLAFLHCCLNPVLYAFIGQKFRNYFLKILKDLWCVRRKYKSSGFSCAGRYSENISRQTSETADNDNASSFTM

[13] = target: T7, CCR7 (Homo sapiens, UniProt P32248); conditions: read-out: RC50 (the source's name)
T7 sequence (P32248 25-378): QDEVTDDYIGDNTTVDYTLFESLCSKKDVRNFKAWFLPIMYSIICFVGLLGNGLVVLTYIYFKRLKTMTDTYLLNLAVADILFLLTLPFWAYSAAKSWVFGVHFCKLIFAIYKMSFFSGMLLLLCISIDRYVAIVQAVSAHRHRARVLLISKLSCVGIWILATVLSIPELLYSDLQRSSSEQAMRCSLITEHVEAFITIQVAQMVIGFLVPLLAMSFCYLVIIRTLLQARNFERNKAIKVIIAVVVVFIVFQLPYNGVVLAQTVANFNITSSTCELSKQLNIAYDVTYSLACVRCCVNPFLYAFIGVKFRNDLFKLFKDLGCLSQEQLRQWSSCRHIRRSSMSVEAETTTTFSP

[14] = target: CRTH2 (Homo sapiens, UniProt Q9Y5Y4); conditions: read-out: RC50 (the source's name)
[15] = target: T8, CCR3 (Homo sapiens, UniProt P51677); conditions: read-out: RC50 (the source's name)
T8 sequence (P51677 1-355): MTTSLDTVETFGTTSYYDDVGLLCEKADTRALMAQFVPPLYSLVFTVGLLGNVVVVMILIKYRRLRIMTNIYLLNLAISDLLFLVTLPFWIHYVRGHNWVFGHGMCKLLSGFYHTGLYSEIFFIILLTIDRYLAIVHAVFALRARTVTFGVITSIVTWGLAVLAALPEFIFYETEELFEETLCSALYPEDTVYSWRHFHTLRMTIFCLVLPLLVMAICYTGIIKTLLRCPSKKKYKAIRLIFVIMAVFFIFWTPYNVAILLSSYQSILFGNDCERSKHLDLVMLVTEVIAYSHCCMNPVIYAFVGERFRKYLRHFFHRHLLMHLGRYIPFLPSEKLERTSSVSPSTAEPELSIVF

[16] = target: T9, CXCR1 (Homo sapiens, UniProt P25024); conditions: read-out: RC50 (the source's name)
T9 sequence (P25024 1-350): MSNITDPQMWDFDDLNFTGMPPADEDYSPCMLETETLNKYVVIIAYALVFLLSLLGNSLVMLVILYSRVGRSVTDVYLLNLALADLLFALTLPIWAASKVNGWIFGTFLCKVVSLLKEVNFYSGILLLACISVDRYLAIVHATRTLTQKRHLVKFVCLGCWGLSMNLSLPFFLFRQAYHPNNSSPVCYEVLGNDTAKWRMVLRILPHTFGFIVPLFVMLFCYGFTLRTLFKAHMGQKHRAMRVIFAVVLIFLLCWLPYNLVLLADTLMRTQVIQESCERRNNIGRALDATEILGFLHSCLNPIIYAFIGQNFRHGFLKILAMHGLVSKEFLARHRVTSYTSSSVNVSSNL

[17] = target: T10, CXCR2 (Homo sapiens, UniProt P25025); conditions: read-out: RC50 (the source's name)
T10 sequence (P25025 1-360): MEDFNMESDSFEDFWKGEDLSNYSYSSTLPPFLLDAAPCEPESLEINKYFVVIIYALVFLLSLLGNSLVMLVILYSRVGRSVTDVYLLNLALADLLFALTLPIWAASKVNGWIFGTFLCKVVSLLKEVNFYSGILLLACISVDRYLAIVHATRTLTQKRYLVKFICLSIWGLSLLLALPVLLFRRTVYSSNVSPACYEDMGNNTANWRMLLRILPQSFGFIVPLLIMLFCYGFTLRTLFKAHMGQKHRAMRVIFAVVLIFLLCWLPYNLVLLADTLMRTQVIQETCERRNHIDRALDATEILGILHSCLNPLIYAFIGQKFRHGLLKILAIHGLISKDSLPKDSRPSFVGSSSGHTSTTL

[18] = target: EBI2 (Homo sapiens, UniProt P32249)
Sequence of EBI2 (P32249 whole entry): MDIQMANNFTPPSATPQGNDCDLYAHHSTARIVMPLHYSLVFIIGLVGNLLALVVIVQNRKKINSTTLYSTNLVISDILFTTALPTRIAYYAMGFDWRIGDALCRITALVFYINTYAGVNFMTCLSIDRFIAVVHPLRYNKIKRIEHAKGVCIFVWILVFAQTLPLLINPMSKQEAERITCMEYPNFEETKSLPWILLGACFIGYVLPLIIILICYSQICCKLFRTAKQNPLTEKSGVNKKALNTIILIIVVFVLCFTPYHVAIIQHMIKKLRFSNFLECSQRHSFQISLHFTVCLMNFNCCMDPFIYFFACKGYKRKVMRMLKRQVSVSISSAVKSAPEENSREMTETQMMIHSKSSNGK

Sequence of GPR103 (Q96P65 whole entry): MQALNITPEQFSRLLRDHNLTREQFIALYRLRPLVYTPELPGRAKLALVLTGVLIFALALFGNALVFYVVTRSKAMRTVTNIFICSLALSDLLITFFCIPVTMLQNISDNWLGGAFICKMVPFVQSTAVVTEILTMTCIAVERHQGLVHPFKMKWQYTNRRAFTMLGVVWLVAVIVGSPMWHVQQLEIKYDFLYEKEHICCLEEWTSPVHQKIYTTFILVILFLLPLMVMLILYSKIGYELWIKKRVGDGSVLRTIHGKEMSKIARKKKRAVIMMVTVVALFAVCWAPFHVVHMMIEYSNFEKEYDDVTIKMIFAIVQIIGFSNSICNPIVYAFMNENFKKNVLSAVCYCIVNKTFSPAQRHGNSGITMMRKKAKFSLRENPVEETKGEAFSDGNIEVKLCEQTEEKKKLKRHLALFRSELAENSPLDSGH
Sequence of EDG3 (Q99500 whole entry): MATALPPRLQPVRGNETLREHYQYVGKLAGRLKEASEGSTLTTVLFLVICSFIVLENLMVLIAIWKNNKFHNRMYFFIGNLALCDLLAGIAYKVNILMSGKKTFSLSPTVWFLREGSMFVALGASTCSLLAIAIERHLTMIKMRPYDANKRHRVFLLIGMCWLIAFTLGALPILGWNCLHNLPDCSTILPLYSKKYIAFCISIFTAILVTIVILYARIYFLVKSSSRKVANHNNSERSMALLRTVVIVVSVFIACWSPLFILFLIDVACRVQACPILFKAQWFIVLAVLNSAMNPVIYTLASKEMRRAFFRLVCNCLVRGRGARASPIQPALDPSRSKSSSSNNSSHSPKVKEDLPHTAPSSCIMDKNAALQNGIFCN
Sequence of EDG1 (P21453 whole entry): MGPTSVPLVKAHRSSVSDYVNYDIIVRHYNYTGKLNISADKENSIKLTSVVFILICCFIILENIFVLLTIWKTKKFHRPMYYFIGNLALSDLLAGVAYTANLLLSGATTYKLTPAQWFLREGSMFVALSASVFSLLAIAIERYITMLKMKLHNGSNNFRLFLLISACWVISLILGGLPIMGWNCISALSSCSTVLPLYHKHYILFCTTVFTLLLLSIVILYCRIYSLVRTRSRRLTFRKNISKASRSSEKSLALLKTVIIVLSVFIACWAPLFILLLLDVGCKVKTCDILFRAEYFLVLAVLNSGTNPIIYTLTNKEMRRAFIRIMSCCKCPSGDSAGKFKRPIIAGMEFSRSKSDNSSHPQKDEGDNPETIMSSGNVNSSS
Sequence of EDG6 (O95977 whole entry): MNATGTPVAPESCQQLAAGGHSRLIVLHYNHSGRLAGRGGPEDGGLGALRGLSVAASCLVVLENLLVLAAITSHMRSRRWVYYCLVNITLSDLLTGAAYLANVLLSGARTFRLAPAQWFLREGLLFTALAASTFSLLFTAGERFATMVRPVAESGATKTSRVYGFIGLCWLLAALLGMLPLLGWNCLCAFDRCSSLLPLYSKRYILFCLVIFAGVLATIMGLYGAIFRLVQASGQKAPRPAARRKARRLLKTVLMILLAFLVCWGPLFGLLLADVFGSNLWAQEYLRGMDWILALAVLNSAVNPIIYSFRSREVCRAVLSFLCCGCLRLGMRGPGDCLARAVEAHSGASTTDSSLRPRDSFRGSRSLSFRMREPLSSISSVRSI
Sequence of CCR5 (P51681 whole entry): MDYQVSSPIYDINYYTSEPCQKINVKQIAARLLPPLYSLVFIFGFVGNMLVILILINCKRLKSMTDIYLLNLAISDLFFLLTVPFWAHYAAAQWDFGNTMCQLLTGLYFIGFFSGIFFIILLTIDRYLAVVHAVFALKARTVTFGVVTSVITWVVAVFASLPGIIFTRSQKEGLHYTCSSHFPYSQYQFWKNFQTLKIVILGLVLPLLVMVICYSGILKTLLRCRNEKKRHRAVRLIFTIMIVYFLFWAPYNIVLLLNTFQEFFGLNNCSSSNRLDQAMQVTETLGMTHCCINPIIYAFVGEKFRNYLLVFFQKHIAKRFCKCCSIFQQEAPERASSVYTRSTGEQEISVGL
Sequence of CRTH2 (Q9Y5Y4 whole entry): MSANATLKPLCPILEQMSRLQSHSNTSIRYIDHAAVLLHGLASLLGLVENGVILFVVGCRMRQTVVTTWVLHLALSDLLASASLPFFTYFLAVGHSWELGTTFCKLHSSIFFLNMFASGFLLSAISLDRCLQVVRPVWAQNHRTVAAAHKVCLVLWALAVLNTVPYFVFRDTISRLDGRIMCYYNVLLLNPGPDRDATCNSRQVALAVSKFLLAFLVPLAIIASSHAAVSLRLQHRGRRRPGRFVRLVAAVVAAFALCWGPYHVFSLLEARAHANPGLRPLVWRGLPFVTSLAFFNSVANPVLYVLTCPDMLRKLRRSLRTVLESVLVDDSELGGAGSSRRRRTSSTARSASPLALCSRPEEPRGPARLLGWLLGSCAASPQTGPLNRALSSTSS
Sequence of FFAR1 (O14842 whole entry): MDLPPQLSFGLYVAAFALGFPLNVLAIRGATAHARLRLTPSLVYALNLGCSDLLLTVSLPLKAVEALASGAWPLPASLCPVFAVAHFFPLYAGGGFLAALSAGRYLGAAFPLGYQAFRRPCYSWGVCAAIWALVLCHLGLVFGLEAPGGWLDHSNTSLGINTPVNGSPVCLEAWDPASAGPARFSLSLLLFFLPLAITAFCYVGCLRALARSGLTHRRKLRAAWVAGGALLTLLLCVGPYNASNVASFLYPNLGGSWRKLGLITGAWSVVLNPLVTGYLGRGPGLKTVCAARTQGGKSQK

Compound: Chemerin: control agonist
- EC50 [1]: 2.26 nM

Compound: CXCL13: control agonist
- EC50 [2]: 21 nM

Compound: CCL3: control agonist
- EC50 [3]: 1.04 nM
- EC50 [4]: 7.55 nM

Compound: Fractalkine: control agonist
- EC50 [6]: 0.444 nM

Compound: CCCCCCCCCCCCC/C=C/[C@@H](O)[C@@H](N)COP(=O)(O)O [S-1-P]
- EC50 [7]: 10.6 nM
- EC50 [8]: 30.5 nM
- EC50 [9]: 19 nM

Compound: CXCL11: control agonist
- EC50 [11]: 12 nM

Compound: CCL20: control agonist
- EC50 [12]: 2.95 nM

Compound: CCL19: control agonist
- EC50 [13]: 5.65 nM

Compound: CCL13: control agonist
- EC50 [15]: 40.6 nM

Compound: CXCL8: control agonist
- EC50 [16]: 2.8 nM
- EC50 [17]: 0.304 nM

Compound: C[C@H](CCCC(C)(C)O)[C@H]1CC[C@H]2[C@@H]3[C@H](O)C=C4C[C@@H](O)CC[C@]4(C)[C@H]3CC[C@]12C [7a,25-Dihydroxycholesterol]
- EC50 [18]: 3.63 nM

Continued, values first:

- EC50 [5]: 10 nM
Compound: TSGPLGNLAEELNGYSRKKGGFSFRF-NH2 (C-terminus assumed) [QRFP-26]

- EC50 [10]: 959 nM
Compound: O=C(O)CCc1ccc(NCc2cccc(Oc3ccccc3)c2)cc1 [GW9508]

- EC50 [14]: 3.34 nM
Compound: CCCCC[C@H](O)/C=C/[C@H]1C(=O)C[C@H](O)[C@@H]1C/C=C\CCCC(=O)O [PGD2]
